From patent publication US20170355769A1 (AbbVie / Abbott, published 2017)
Where two headings read alike, the source gives them in different places.

T1: Human full length B7-H3 (human, UniProt Q5ZPR3 29-534)
T1 construct: On 3T12 fibroblasts expressing full length human B7-H3 or on NCI-H1650 cells; signal peptide residues 1-28 stated; also called huB7-H3; CD276
T1 sequence: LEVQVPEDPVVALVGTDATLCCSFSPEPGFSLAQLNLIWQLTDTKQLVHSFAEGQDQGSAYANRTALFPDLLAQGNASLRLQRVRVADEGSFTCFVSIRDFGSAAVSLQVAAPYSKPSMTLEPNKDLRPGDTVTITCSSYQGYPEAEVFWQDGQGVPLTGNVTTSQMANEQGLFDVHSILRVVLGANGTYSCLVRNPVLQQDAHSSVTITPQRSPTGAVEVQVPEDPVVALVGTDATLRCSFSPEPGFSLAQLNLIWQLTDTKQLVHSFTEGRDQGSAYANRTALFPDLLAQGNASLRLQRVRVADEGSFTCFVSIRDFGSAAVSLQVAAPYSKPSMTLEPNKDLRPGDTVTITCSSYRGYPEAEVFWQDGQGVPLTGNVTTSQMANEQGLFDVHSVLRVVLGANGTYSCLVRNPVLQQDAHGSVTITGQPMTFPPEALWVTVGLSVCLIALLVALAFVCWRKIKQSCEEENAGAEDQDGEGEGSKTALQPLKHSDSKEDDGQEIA

T2: Human B7-H3-ECD (His tag) (human, UniProt Q5ZPR3 29-461)
T2 construct: SPR analyte; also called huB7-H3; soluble ECD of human B7-H3
T2 sequence: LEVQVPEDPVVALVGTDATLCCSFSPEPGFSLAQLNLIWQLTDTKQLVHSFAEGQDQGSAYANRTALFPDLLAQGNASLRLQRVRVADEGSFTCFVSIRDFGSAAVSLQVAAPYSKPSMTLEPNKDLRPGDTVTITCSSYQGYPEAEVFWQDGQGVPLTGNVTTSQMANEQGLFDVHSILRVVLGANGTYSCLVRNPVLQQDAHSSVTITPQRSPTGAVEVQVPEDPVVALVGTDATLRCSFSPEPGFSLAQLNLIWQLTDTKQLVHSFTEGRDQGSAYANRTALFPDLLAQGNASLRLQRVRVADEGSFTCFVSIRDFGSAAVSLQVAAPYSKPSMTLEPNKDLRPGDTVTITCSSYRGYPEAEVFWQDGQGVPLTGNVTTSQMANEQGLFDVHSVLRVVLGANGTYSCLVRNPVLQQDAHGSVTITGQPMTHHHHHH


Assays:
Human full length B7-H3 = target: T1, Human full length B7-H3; assay: FACS, NCI-H1650 cells
[1] = target: T2, Human B7-H3-ECD (His tag); assay: SPR Biacore, naked mAb
Excerpt: Biacore T200 SPR instruments were used to measure the binding kinetics of human B7-H3 (analyte) binding to various mAbs (ligands). The assay format was Fc-based capture via immobilized anti-mouse (Fc) (Pierce 31170) or immobilized anti-human (Fc) (Pierce 31125). A standard amine coupling protocol was employed to immobilize the capture reagents via primary amines to the carboxy-methyl (CM) dextran surface of CM5 sensorchips (Biacore); capture antibodies were coupled to a level of approximately 5000RU. For binding kinetic measurements the assay buffer was HBS-EP+ (Biacore): 10 mM Hepes, pH7.4, 150 mM NaCl, 3 mM EDTA, 0.05% polysorbate 20. During the assay, all measurements were referenced against the capture surface alone. Each assay cycle consisted of the following steps: 1) Capture of ligand to approximately 50RU; 2) Analyte injection over both reference and test surface, 240 μL at 80 μL/min, after which the dissociation was monitored for 900 seconds at 80 μL/min; 3) Regeneration of capture surface with low pH glycine. […] Data were processed and fit to a 1:1 binding model using Biacore T200 Evaluation Software to determine the binding kinetic rate constants, kₐ (on-rate) and kd (off-rate), and the equilibrium dissociation constant (affinity, KD). […]

[2] = target: T2, Human B7-H3-ECD (His tag); assay: SPR Biacore, naked mAb; remark: listed apart in the source
Excerpt: (§1) Biacore T200 SPR instruments were used to measure the binding kinetics of human B7-H3 (analyte) binding to various mAbs (ligands). The assay format was Fc-based capture via immobilized anti-mouse (Fc) (Pierce 31170) or immobilized anti-human (Fc) (Pierce 31125). A standard amine coupling protocol was employed to immobilize the capture reagents via primary amines to the carboxy-methyl (CM) dextran surface of CM5 sensorchips (Biacore); capture antibodies were coupled to a level of approximately 5000RU. For binding kinetic measurements the assay buffer was HBS-EP+ (Biacore): 10 mM Hepes, pH7.4, 150 mM NaCl, 3 mM EDTA, 0.05% polysorbate 20. During the assay, all measurements were referenced against the capture surface alone. Each assay cycle consisted of the following steps: 1) Capture of ligand to approximately 50RU; 2) Analyte injection over both reference and test surface, 240 μL at 80 μL/min, after which the dissociation was monitored for 900 seconds at 80 μL/min; 3) Regeneration of capture surface with low pH glycine. […] Data were processed and fit to a 1:1 binding model using Biacore T200 Evaluation Software to determine the binding kinetic rate constants, kₐ (on-rate) and kd (off-rate), and the equilibrium dissociation constant (affinity, KD).
These variants were further characterized for binding by SPR and as ADCs conjugated to the Bcl-xL inhibitor synthon (linker warhead) CZ. […] An ADC comprising chAb3 conjugated to synthon CZ was used as a control.

[3] = target: T2, Human B7-H3-ECD (His tag); assay: SPR Biacore, naked mAb; remark: listed apart in the source
Excerpt: as §1

Binder | EC50 (Human full length B7-H3) [nM] | Kd [1] [nM] | Kd [2] [nM] | Kd [3] [nM]
chAb13 (antibody, IgG1, V domains shown, chimeric, huIgG1/k) VH: DVQLQESGPDLVKPSQSLSLTCTVTGYSITSGYSWHWIRQFPGNKLEWMGYIHSSGSTNYNPSLKSRISINRDTSKNQFFLQLNSVTTEDTATYYCAGYDDYFEYWGQGTTLTVSS VL: DIVMTQSQKFMSTSVGDRVSVTCKASQNVGFNVAWYQQKPGQSPKALIYSASYRYSGVPDRFTGSGSGTDFTLTISNVQSEDLAEYFCQQYNSYPFTFGSGTKLEIK | 1.53 | 5.7 |  | 
huAb3v2 (antibody, V domains shown, humanized IgG) VH: EVQLVQSGAEVKKPGSSVKVSCKASGYTFSSYWMHWVRQAPGQGLEWIGLIHPDSGSTNYNEMFKNRATLTVDRSTSTAYMELSSLRSEDTAVYYCAGGGRLYFDYWGQGTTVTVSS VL: DIVMTQSPLSLPVTPGEPASISCRSSQSLVHSNGDTYLRWYLQKPGQSPQLLIYKVSNRFSGVPDRFSGSGSGTDFTLKISRVEAEDVGVYYCSQSTHVPYTFGGGTKVEIK |  |  | 0.69 | 2.3
